# Data: the DeepSol protein solubility set
# Experiment: soluble on expression in E. coli; label from the status in PepcDB or PDB records
row,Sequence,soluble on expression in E. coli
1,HLQTKTAAKTGEGLSESAIHRTFQQLASGFDTIYGGFGQAPKFPMPHMLMYLLRYDHNTGQENALYNVTKTLDSMANGGIYDHIGYGFARYSTDDEWLVPHFEKMLYDNALLLTAYTEAYQVTQNSRYKEICEQIITFIQREMTHEDGSFFSALDADTEGEEGKYYVWSKEEILKTLGDDLGTLYCQVYDITEEGNFEGKNIPNLIHTKREQIKEDAGLTEKELSLKLEDARQQLLKTREERTYPHVDDKVLTSWNALMIAGLAKAAKVYQEPKYLSLAKDAITFIENKLIIDGRVMVRYRDGEVKNKGFIDDYAFLLWAYLDLYEASFDLSYLQKAKKLTDDMISLFWDEEHGGFYFTGHDAEALIVREKEV,not soluble
2,HMFPARWHNYLQCGQVIKDSNLICFKTPLRPELFAYVTSEEDVWTAEQIVKQNPSIGAIIDLTNTSKYYDGVHFLRAGLLYKKIQVPGQTLPPESIVQEFIDTVKEFTEKCPGMLVGVHCTHGINRTGYMVCRYLMHTLGIAPQEAIDRFEKARGHKIERQNYVQDLLI,soluble
3,HMSNPLGELVKALEKLSFKPSDVRIYSLLLERGGMRVSEIARELDLSARFVRDRLKVLLKRGFVRREIVEKGWVGYIYSAEKPEKVLKEFKSSILGEIERIEKMFTDGS,soluble
4,HPISLMRAPVNEIMVGLGYYEVMPFTLTSEKVNFENMCREKTDDVTYVLHPISEDQTMLRTTVLPNLLEILALNQHRELPQKIFEFGEVVSNETTGQHVAAVSIHPQANFTEVYEVVDAFMREMMLSYEVKESKDPAFLEGRRADVYVNGKKLGVFGELQPEVISKFSLGYAVVGFELDLNDLIGKN,not soluble
5,HTDPGDVVIEELFNRIPETSVWNENERVLSNANHLVSTALWRNEQSFRVESELGERPRTLVRGPVLRDDGSYICLEATDQETGEPLEVHVPYFTERPPSNAIKQLSEQVLRLRLLRGIKNQRQAKAYLRFIFPIDLVKDPKKRKMIRVRLDERDMWVLSRFFLYPRMQSNLHILGDVLLSHSSTHKSLVHHARLQLTLQLIRLAASLQHYGLVHADFQVRNILLDQRGGVFLTGFEHLVRDGASAVSPIGRGFAPPETTAERMLPYRQHHPTLMTFPFDTWTLGLAIYWIWCADLPNTEDAELGGIEWIYRRCKNIPQPVRALLEGFLRYSKEDRLLPLQAMETSEYEQLRTELSAVLPLYQTDGEPA,soluble
6,IAAGGSHVEAAPQEEWKKHFIHTGELGSAEFASVMSHTTSAMKSVFEQVNAPYSGMDPKALEDAINAVDLDNKNAPLKSVIDDVAELVAKNAIFTQHPDCIAHLHTPPLMPAVAAEAMIAALNQSMDSWDQASSATYVEQKVVNWLCDKYDLSEKADGIFTSGGTQSNQMGLMLARDWIADKLSGHSIQKLGLPDYADKLRIVCSKKSHFTVQKSASWMGLGEKAVMTVDANADGTMDITKLDEVIAQAKAEGLIPFAIVGTAGTTDHGAIDDLDFIADMAVKHDMWMHVDGAYGGALILSSHKSRLKGVERAHSISVDFHKLFYQTISCGALLVNDKSNFKFLLHHADYLNREHDELPNLVDKSIATTKRFDALKVFMTMQNVGPKALGDMYDHLLAQTLEVADMIRTNDQFELLAEPSLSTVLFRATHETADLDELNKALRLEALTRGIAVLGETIVDGKTALKFTILNPCLTTSDFESLLSKINMLAVELV,soluble
7,IATGIPTGFKDLDDLTNGLRGGQMIIVAARPGVGKSTIALDFMRSASIKNNMASVIFSLEMSKSEIVMRLLSAETEIRLADMRGGKMDETAWEKMVQKLDKVAQAPLFIDDSANLTMMEIRSKARKLKQKHDLKMIVVDYLQLMSSGKRVESRQQEVSEFSRQLKLLAKELDVPLIAISQLNRGPESRTDKRPQLADL,not soluble
8,IEAENHKVTDKIKNAQPFLVDVVPAKSVIPELNDDAQKTLLHAGPPIQWSEMTGPMKGACIGAALFERWADNEEDALKIFEAGEVRFIPCHHVKAVGPMGGITSGNMPVFVVENRLEGNEAYCILNEGIGKVLRFGAYSQEVVDRLDWIKDVLGPTIAKALKLSEEGLNLNVLIARSITMGDEFHQRNIAASLNFLKELSPLIIKTDIPEDQKYEVIKFLADTDQFFLNVMMATGKAIVDGARKDTNGTIVTTMTRNGVNFGVRIAETGDQWHTAPVNTPKGLYFTGFSEEDGNPDVGDSAITETVGVGAMAMVAAPGVTRFVGAGGFEDALATSNEMAKICEGNNPTFSIPTWDFQGTCLGIDIRKVVELGITPIINTGIAHKNAGVGQIGAGTVRAPLGCFEKALEAYAEKLGITVE,not soluble
9,IEERMNEYFNWLKQNYIFKELDSSTEITTPFKNHLNDFIRIYADTLPNNEICLSDDGLTINELEMLGIDINTKTRTKLIQNILNQFNLKLVDKEITADVKNESFAQSKHNLIQGILKIYDLTLTTKSNVTNIFYEEVFEFLYDQKIRGLAQVSVSGESGLKYSIDYIVSETKSQPEKLVNFTNNLDFNKITNEAYIYRDIKPNRPSRNKLEPIMLIIVNDVDHPINERAQTVAEHENLEILKWSNKSKIIETL,not soluble
10,IEGIPVYLLDKESGPFSFFHWIFIYPQAHPQNELSEILTHEGTHARQRHSIDVIISELMCIACWFNPFMWLMKREVRNNLEYMADNRVLEAGHDSKSYQYHLLGLAHQKSAITLSNSFNVLPLKNRITMM,not soluble
11,IEYETHFFNEVTYLVDYLKVKALMMIPKNKKDIKRIVIYLRGGKGQVGRVRAARLMQFANEYTLVIGPYYRGNNGSEGRDEFYRGDLNDVTHLIRLLNQNYPSAFIHMVGFSRGGLQGLLTFNDLPVDSYMIWGGVSDIHLMYEERVDLRGMLRRMVGHPKKDAKAYKSRDAMQFIKKDSPPILIIHGGKDIQVGIHQAYDLEKKLKSKGIYYQTYYQLDEGHVPRPPAMRDVIRYIHQWMNNVENKN,not soluble
12,IGDWGYSVSANLTTIKNKVKSLVQDGYSIIAGDKQQSYTMAGYPIGFFYGYKVAGVYQSQADIDASPENTLATVTPGDLKFADVNRDGKITPEDRTMIGNPTPDFTYGLSLGVNYKNWSLGIDMMGQHGNEIFRTWDNYNFAQFNYLSQRMDRWHGEGTSNSQPLLNSKHSINNLNSEYYIEDGSFFRIRNVQLAYSFDKALLAKIRLQALKVYVNIQNLKTWKHNTGYTPELGGSATTFGVDDGSYPVPAVYTFGINLTF,not soluble
13,IGKEKAEVELLQVDPELQAEIIATHNIALQAAVQVEEKKAREAATEAVKEVVIGEYEARYAEHEEYDRIMRDVAEILEQMEHAEVRRLITEDKIRPDGRRVDEIRP,not soluble
14,IIGGNEVTPHSRPYMVLLSLDRKTICAGALIAKDWVLTAAHCNLNKRSQVILGAHSITREEPTKQIMLVKKEFPYPCYDPATREGDLKLLQLTEKAKINKYVTILHLPKKGDDVKPGTMCQVAGWGRTHNSASWSDTLREVNITIIDRKVCNDRNHYNFNPVIGMNMVCAGSLRGGRDSCNGDSGSPLLCEGVFRGVTSFGLENKCGDPRGPGVYILLSKKHLNWIIMTIKGAV,soluble
15,IIHEVQKEEACGNLTLQHHMLEPVQRIPRYELLLKDYLLKLPHGSPDSKDAQKSLELIATAAEHSNAAIRKMERMHKLLKVYELLGGEEDIVSPTKELIKEGHILKLSAKNGTTQDRYLILFNDRLLYCVPRLRLLGQKFSVRARIDVDGMELKESSNLNLPRTFLVSGKQRSLELQARTEEEKKDWVQAINSTLLKHEQTLETFKLLNSTNREDEDTPPNSPNVDLGKRAPTPIREKEVTMCMRCQEPFNSITKRRHHCKACGHVVCGKCSEFRARLVYDNNRSNRVCTDCYVALHGVPGSSPACSQHTPQRRRSILEKQASVAAENSVICSFLHYMEKGGKGWHKAWFVVPENEPLVLYIYGAPQDVKAQRSLPLIGFEVGPPEAGERPDRRHVFKITQSHLSWYFSPETEELQRRWMAVLGRAGRGDTFCPGPTLSEDREMEEAPVAALGATAEPPESPQTRDKT,soluble
16,IKVILITGMPGSGKSEFAKLLKERGAKVIVMSDVVRKRYSIEAKPGERLMDFAKRLREIYGDGVVARLCVEELGTSNHDLVVFDGVRSLAEVEEFKRLLGDSVYIVAVHSPPKIRYKRMIERLRSDDSKEISELIRRDREELKLGIGEVIAMADYIITNDSNYEEFKRRCEEVTDRVLK,soluble
